Assays:
ADAM11 = target: T1, ADAM11 (Homo sapiens, UniProt O75078); assay: LGI1-AP fusion binding to transfected COS-7 cells
T1 chain: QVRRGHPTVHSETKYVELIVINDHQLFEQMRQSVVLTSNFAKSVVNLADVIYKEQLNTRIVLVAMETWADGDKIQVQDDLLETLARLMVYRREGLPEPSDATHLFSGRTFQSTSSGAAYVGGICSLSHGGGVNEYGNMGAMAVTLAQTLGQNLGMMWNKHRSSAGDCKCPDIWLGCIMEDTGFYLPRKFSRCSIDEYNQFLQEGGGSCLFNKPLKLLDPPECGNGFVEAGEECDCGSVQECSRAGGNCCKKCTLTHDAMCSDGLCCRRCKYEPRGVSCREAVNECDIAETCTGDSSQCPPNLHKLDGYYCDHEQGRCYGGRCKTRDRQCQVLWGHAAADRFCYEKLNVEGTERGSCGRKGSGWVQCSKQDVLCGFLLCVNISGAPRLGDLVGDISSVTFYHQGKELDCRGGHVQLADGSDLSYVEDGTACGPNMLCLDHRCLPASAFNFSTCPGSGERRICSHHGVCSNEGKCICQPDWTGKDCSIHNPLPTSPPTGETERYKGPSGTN

ADAM22 = target: T2, ADAM22 (Homo sapiens, UniProt Q9P0K1); assay: LGI1-AP fusion binding to transfected COS-7 cells
T2 chain: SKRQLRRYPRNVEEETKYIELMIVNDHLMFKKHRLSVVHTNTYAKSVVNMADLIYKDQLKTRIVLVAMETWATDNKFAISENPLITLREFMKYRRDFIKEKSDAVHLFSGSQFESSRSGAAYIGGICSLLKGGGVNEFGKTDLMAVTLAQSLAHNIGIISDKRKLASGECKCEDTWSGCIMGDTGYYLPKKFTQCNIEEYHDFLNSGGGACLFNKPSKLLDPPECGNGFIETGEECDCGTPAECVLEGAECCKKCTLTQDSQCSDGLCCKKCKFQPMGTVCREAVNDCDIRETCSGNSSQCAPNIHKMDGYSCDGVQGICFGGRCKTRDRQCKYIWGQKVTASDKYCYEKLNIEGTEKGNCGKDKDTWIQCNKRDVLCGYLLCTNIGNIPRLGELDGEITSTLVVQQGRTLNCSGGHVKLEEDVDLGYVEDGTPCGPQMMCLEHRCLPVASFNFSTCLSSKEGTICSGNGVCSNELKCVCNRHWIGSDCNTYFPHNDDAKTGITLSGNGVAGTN

ADAM23 [1] = target: T3, ADAM23 (Homo sapiens, UniProt O75077); assay: LGI1-AP fusion binding to transfected COS-7 cells
T3 chain: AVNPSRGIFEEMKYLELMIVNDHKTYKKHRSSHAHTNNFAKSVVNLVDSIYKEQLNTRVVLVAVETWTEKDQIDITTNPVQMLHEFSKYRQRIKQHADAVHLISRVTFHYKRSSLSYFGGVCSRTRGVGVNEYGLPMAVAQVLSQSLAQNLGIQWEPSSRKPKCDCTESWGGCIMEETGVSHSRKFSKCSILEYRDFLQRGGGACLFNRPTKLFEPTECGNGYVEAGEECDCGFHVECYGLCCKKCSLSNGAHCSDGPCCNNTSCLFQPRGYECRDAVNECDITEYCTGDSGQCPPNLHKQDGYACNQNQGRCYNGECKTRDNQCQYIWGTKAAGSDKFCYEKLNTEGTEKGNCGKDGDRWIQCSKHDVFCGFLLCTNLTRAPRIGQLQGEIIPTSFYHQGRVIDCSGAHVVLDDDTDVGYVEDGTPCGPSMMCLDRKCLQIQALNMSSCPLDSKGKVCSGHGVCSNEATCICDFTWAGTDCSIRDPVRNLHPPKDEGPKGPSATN

ADAM23 [2] = target: T3, ADAM23; assay: LGI1-AP fusion binding to transfected COS-7 cells, Scatchard

B1: LGI1 (protein)
chain: KKPAKPKCPAVCTCTKDNALCENARSIPRTVPPDVISLSFVRSGFTEISEGSFLFTPSLQLLLFTSNSFDVISDDAFIGLPHLEYLFIENNNIKSISRHTFRGLKSLIHLSLANNNLQTLPKDIFKGLDSLTNVDLRGNSFNCDCKLKWLVEWLGHTNATVEDIYCEGPPEYKKRKINSLSSKDFDCIITEFAKSQDLPYQSLSIDTFSYLNDEYVVIAQPFTGKCIFLEWDHVEKTFRNYDNITGTSTVVCKPIVIETQLYVIVAQLFGGSHIYKRDSFANKFIKIQDIEILKIRKPNDIETFKIENNWYFVVADSSKAGFTTIYKWNGNGFYSHQSLHAWYRDTDVEYLEIVRTPQTLRTPHLILSSSSQRPVIYQWNKATQLFTNQTDIPNMEDVYAVKHFSVKGDVYICLTRFIGDSKVMKWGGSSFQDIQRMPSRGSMVFQPLQINNYQYAILGSDYSFTQVYNWDAEKAKFVKFQELNVQAPRSFTHVSINKRNFLFASSFKGNTQIYKHVIVDLSA
- Kd (ADAM11): 15 nM
- Kd (ADAM22): 15 nM
- Kd (ADAM23 [1]): 15 nM
- Kd (ADAM23 [2]): 10 nM

From PMC2783222 (2010)
